Patent US20030135880A1, “Compositions and methods for halogenation reactions” (priority 2002, published 2003)

Target: PrnA (Pseudomonas fluorescens, UniProt P95480)
Test: Halogenation by PrnA expressed in transgenic plants, immunopurified and assayed in vitro (Example 5)
Format: biochemical
Design: made in house; host or cells: Transgenic Arabidopsis thaliana (Columbia) lines 3 and 12; leaf extract immunopurified on goat anti-PrnA sera with anti-goat-IgG-agarose
Conditions: immunopurified PrnA with Fre (20 microliter, 21 microgram/ml), overnight
Procedure: Arabidopsis thaliana, ecotype Columbia, is transformed (by the Agrobacterium-mediated transformation method) with the four nucleic acid molecules of the pyrrolnitrin operon, encoding PrnA, PrnB, PrnC & PrnD, each behind the ubiquitin promoter as described below in Example 6.
Two transformed lines (3 and 12) and a nontransformed control line are grown and leaves (1 g) harvested. The leaves are frozen in liquid N2, powdered in a mortar and extracted with 6 ml of LS buffer (50 mM HEPES, pH 7.5, 5 mM NaCl). After centrifugation at 5000×g for 15 min to pellet debris, the supernate is filtered through glass wool to remove residual particles.
PrnA is immunopurified by mixing extract (3 ml) with an affinity matrix. The affinity matrix is prepared by mixing for 30 minutes, at room temperature, 100 microliters of rabbit antigoat-IgG-agarose (purchased from Sigma) with 50 microliters of goat anti-PrnA sera. Then the agarose beads are washed three times with 1 ml of LS buffer. After mixing the 3 ml sample with the affinity matrix, unabsorbed material is removed from the beads by washing with LS buffer. A positive control sample is prepared by mixing 5 microliter of PrnA (0.36 microgram/microliter) purified from Pseudomonas fluorescens as described in Example 1 with 3 ml LS then treating in parallel with the plant extract samples. […]

B1: PrnA: PrnA purified from Pseudomonas fluorescens, positive control added to non-transformed plant extract (protein)
chain: MNKPIKNIVIVGGGTAGWMAASYLVRALQQQANITLIESAAIPRIGVGEATIPSLQKVFFDFLGIPEREWMPQVNGAFKAAIKFVNWRKSPDPSRDDHFYHLFGNVPNCDGVPLTHYWLRKREQGFQQPMEYACYPQPGALDGKLAPCLSDGTRQMSHAWHFDAHLVADFLKRWAVERGVNRVVDEVVDVRLNNRGYISNLLTKEGRTLEADLFIDCSGMRGLLINQALKEPFIDMSDYLLCDSAVASAVPNDDARDGVEPYTSSIAMNSGWTWKIPMLGRFGSGYVFSSHFTSRDQATADFLKLWGLSDNQPLNQIKFRVGRNKRAWVNNCVSIGLSSCFLEPLESTGIYFIYAALYQLVKHFPDTSFDPRLSDAFNAEIVHMFDDCRDFVQAHYFTTSRDDTPFWLANRHDLRLSDAIKEKVQRYKAGLPLTTTSFDDSTYYETFDYEFKNFWLNGNYYCIFAGLGMLPDRSLPLLQHRPESIEKAEAMFASIRREAERLRTSLPTNYDYLRSLRDGDAGLSRGQRGPKLAAQESL
  level of 7-Cl-Trp found: 185 pmol
